Laboratory results as given in the supplement of paper PMC11136658.

Test system: peptide library, one residue held at a place counted from the Y acceptor
Test: relative phosphorylation of the sub-library (ratio to the mean residue at this position); higher = residue favoured
Summary of the method: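 Every value reflects phosphorylation relative to the mean randomized residue. The sum of the 18 randomized residues, or 16 in the Ser/Thr-free library, served to normalize intensities at each position, which were then multiplied by that number. Intensities came from phosphorimaging with ImageQuant of biotinylated Tyr-centred peptides captured on streptavidin membranes after 90 min with purified recombinant kinases and 50 μM ATP plus γ-32P-ATP.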

Chain of MATK, construct: Full length, human (P42679 whole entry, looked up): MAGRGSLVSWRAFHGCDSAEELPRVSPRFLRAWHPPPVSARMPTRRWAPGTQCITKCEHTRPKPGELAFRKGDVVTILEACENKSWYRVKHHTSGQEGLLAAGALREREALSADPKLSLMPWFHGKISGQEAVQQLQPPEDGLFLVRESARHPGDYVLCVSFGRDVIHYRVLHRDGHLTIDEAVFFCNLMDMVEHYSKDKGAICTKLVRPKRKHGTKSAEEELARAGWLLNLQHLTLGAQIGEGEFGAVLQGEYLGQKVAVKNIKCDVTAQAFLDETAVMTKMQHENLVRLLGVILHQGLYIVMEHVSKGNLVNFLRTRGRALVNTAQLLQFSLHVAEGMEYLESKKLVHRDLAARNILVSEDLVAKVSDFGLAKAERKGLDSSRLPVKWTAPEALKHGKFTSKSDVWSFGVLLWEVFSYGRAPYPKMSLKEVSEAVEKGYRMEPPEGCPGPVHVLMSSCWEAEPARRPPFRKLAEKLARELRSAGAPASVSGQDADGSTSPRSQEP

MATK, construct: Full length, human (from UniProt P42679)
relative phosphorylation
Conditions	at +1	at +2	at +3	at +4	at +5	at -1	at -2	at -3	at -4	at -5
A fixed	1.54	0.899	0.728	0.85	0.892	0.545	0.986	0.875	1.17	0.971
D fixed	0.52	0.698	0.362	0.806	0.935	1.04	0.725	1.43	1.29	1.34
E fixed	1.01	0.877	0.364	1.15	1.09	2.07	1.36	2.47	1.78	1.26
F fixed	0.735	1.12	1.38	0.839	1.18	0.512	0.538	0.854	0.872	0.935
G fixed	0.643	0.46	0.667	0.962	0.845	0.407	1.23	0.95	1.39	1.18
H fixed	1.61	0.658	1.15	1.49	1	1.71	1.09	1.08	0.975	1.01
I fixed	0.964	0.972	1.95	0.803	0.862	2.32	0.822	0.599	0.724	0.922
K fixed	0.833	0.932	1.12	1.19	0.979	0.703	0.911	0.76	0.982	0.986
L fixed	0.776	1.24	1.51	0.876	0.881	0.905	0.737	0.683	0.756	0.763
M fixed	1.22	1.32	0.915	0.998	0.983	0.954	0.677	0.736	0.749	0.845
N fixed	0.804	1.3	0.491	1.14	1.09	0.988	1.03	1.23	0.879	1.1
P fixed	0.521	0.763	1.08	1.15	0.952	0.536	1.15	1.07	1.1	1.06
Q fixed	1.13	0.885	0.749	0.856	0.991	1.02	1	0.8	1.1	1.09
R fixed	1.04	1.42	1.19	1.4	1.24	0.706	1	0.967	1.04	1.09
S fixed	1.1	0.845	0.674	0.789	1.11	0.423	1.77	1.06	0.803	0.738
T fixed	0.927	0.839	0.842	0.772	1.01	0.818	1.41	0.868	0.713	0.923
V fixed	1.24	0.848	1.46	0.665	0.832	1.72	0.887	0.696	0.668	0.724
W fixed	1.38	1.93	1.37	1.27	1.14	0.627	0.671	0.869	1	1.06
pThr fixed	1.28	1.53	0.438	0.544	0.806	0.806	1.4	2.14	1.28	0.879
pTyr fixed	3.3	3.6	0.787	1.2	0.998	9.49	2.64	4.79	3	1.8
